Publication PMC12272874

Target: N-terminal FMN-binding domain of human methionine synthase reductase (ΔCMTRR, residues 1 to 231) (UniProt Q9UBK8)
Experiment: stopped-flow absorption spectroscopy; MTR•cob(II)alamin (40 μM) rapidly mixed with ΔCMTRRhq (70 μM) in Buffer D (100 mM potassium phosphate, pH 7.4), anaerobic, 24 °C; increase in absorbance at 464 nm (loss of His-785 coordination) over 60 s, double exponential fit
Conditions: other: stopped-flow absorption spectroscopy

N-terminal FMN-binding domain of human methionine synthase reductase (ΔCMTRR, residues 1 to 231), sequence (Q9UBK8 1-231, stated change not applied): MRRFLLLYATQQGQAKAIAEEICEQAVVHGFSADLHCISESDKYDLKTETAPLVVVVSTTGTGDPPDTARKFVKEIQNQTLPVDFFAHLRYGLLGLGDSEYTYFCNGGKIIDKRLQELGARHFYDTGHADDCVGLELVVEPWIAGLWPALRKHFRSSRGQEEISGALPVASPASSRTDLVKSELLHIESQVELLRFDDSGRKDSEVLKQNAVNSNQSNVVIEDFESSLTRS
Human methionine synthase (MTR), wild-type, full-length recombinant, sequence (chain, as listed by the source): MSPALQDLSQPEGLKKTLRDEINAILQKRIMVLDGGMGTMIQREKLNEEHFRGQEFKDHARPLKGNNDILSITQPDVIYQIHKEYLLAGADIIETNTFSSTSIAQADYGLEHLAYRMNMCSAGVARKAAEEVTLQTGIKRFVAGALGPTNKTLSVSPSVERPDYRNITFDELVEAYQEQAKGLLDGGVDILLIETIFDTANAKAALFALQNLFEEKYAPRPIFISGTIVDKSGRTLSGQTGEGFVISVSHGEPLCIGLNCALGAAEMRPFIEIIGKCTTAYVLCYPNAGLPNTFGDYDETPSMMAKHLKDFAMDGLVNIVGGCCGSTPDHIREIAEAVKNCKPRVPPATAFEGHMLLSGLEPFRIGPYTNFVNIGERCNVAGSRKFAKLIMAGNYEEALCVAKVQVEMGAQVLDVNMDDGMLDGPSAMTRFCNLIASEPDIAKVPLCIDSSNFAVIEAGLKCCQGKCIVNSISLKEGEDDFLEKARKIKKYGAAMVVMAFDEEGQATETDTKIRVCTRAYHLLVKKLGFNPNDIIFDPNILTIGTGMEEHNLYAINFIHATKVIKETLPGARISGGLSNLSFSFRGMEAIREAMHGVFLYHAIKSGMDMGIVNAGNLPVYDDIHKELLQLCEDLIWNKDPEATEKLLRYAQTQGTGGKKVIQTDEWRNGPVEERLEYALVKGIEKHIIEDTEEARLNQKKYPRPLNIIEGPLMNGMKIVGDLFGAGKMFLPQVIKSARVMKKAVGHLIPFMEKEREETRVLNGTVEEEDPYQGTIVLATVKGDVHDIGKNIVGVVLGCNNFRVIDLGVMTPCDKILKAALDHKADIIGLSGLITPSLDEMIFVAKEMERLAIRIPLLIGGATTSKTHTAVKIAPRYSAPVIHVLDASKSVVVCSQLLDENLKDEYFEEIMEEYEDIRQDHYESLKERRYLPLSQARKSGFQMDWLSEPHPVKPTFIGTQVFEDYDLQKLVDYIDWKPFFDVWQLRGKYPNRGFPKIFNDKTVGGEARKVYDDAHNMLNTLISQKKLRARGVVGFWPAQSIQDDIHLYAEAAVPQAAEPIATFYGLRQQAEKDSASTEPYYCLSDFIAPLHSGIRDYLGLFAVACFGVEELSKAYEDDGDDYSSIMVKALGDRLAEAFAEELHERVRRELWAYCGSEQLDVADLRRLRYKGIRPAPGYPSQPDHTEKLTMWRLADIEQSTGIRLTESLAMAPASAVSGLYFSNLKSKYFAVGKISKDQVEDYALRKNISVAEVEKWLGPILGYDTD
P1173L variant of human methionine synthase (MTR), full-length recombinant, sequence (chain, as listed by the source P1173L): as the sequence (chain, as listed by the source) above, with P1173L counted along it

## Human methionine synthase (MTR), wild-type, full-length recombinant
  observed rate constant for complex formation (kobs): the observed rate constant for complex formation was 0.1 ± 0.01 s^−1

## P1173L variant of human methionine synthase (MTR), full-length recombinant
  observed rate constant for complex formation (kobs): the observed rate constant for complex formation was 0.1 ± 0.01 s^−1
